Experimental findings from article PMC2171531 are described below.

Broadly, the Kd is the free concentration of one partner at which half of the binding sites on the other are occupied at equilibrium, for simple one-to-one binding. A high value points to lower affinity.

The experiment concerns the target GST-syntaxin-1 (UniProt P32851). The experiment can be described thus: pull-down.

Sequence of GST-syntaxin-1 (P32851 1-265): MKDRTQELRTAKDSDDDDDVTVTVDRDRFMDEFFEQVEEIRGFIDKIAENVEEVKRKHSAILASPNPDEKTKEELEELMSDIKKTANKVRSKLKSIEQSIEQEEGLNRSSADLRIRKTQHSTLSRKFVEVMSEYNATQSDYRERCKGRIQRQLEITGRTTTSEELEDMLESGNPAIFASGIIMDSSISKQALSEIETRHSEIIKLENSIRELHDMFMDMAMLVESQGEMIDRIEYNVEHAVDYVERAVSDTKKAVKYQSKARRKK

Consider “MBP-tomosyn (nonphosphorylated form) (natural protein)”, for which the equilibrium dissociation constant (Kd) is 60 nM and the percent of the total input bound came out at 60%. “MBP-tomosyn phosphorylated by PKA (natural protein)”: the Kd was 330 nM and the percent of the total input bound amounted to 20%.

MBP-tomosyn-S724D (natural protein) returned an amount bound in comparison with MBP-tomosyn of 35%.
